B1: Protein P-30, P22069 (parent)
chain: QDWLTFQKKHITNTRDVDCDNIMSTNLFHCKDKNTFIYSRPEPVKAICKGIIASKNVLTTSEFYLSDCNVTSRPCKYKLKKSTNKFCVTCENQAPVHFVGVGSC

Variants of: B1
Details: Lithobates pipiens, pH 5.5, sodium acetate 100 mM, reversible: Yes, structure 1ONC, whole UniProt chain shown; for ddG of mutation (higher = less stable) / denaturant midpoint (higher = more stable): 20 °C, GdnHCl, Fluorescence; for Tm / change of melting temperature, mutant - wild type (higher = more stable): Thermal, DSC

Variant | ddG of mutation (higher = less stable) [kcal/mol] | denaturant midpoint (higher = more stable) [M] | Tm [°C] | change of melting temperature, mutant - wild type (higher = more stable) [°C]
F28A | 5 | 2.9 | 78.1 | -10.4
F28T | 5.31 | 2.8 | 77.4 | -11.1
F36Y | 4.66 | 3 | 79.2 | -9.3
C87A C104A | 7.65 | 2.1 | 69.4 | -19.1

— FireProtDB (doi:10.1021/bi0525223)
